Laboratory results: patent US20250262323, “PCSK9 ENDONUCLEASE VARIANTS, COMPOSITIONS, AND METHODS OF USE” (Novo Nordisk A/S, published 2025)

What was measured:
[1] = molecular target: T1, PCSK9.H7.C11 I-OnuI HE variant (synthetic construct (Ophiostoma …)); assay: cell_activity; HEK 293T chromosomal mCherry reporter
T1 chain: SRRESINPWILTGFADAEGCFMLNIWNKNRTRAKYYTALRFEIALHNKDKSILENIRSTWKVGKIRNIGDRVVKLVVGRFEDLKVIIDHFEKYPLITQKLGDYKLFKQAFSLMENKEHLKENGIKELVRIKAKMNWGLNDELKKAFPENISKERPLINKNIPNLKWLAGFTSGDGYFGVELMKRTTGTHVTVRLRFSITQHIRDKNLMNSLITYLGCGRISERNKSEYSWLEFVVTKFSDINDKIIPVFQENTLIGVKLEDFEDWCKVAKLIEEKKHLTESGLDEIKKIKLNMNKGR
Protocol: The activity of reprogrammed I-OnuI HEs that target exon 4 of the PCSK9 gene was measured using a chromosomally integrated fluorescent reporter system (Certo et. al., 2011). Fully reprogrammed I-OnuI HEs that bind and cleave the PCSK9 target sequence were cloned into mammalian expression plasmids and then individually transfected into a HEK 293T […] cell line that contained the PCSK9 target sequence upstream of an out-of-frame gene encoding the fluorescent mCherry protein. Cleavage of the embedded target site by the HE and the accumulation of indels following DNA repair via the non-homologous end joining (NHEJ) pathway results in approximately one out of three repaired loci placing the fluorescent reporter gene back “in-frame”. The percentage of mCherry fluorescing HEK 293T cells is therefore used a readout of endonuclease activity at the chromosomally embedded target sequence. […] FIG. 3 (top panels).
A secondary I-OnuI variant library was next generated by performing random mutagenesis on the PCSK9.H7 HE variant (e.g., SEQ ID NO: 6). Display-based flow sorting was performed under more stringent cleavage conditions in an effort to isolate variants with improved catalytic efficiency. FIG. 3 (bottom panel). This process led to variant PCSK9.H7.C11 (SEQ ID NO: 7) with an approximately 2-fold higher rate of mCherry expressing cells.

[2] = molecular target: T1, PCSK9.H7.C11 I-OnuI HE variant; assay: flow; sub-nanomolar affinity; yeast surface display substrate titration; exact value only in figure; settings: tags: yeast surface display

B1: PCSK9 exon 4 HE target site (dsDNA)
DNA 1: ATCTAAGAGATACACCTCCACC
DNA 2: GGTGGAGGTGTATCTCTTAGAT
B1 was tested, and the activity [1] was ~2 fold vs PCSK9.H7 and the Kd [2] was < 1 nM.
